Assay [1] deals with T1, Rhizomucor miehei lipase (RmL) mature protein (Rhizomucor miehei, UniProt P19515 95-363).
T1 construct: Expressed in Aspergillus oryzae ToC1512 from the gene with its prepropeptide; The mature part is the same in all RMLPP variants; also called RmL WT; mature protein of the lipase
T1 sequence: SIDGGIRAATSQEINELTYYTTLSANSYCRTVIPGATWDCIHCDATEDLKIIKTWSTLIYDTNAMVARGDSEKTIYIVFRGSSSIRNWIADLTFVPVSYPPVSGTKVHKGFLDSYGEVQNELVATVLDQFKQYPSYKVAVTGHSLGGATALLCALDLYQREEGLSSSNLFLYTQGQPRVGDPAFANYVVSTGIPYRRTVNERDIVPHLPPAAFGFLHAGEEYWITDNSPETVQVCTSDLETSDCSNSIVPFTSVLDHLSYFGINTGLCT
Kind of assay: native PAGE, column HMW band (taken by the filing as lipase associated with propeptide). As to the method: (§1) The native PAGE was casted by first pouring the Resolving gel (4.0 mL 30% Acrylamide (Acrylamide-Bis-acrylamide solution); 2.5 mL 1.5M Tris (pH8.8); 0.1 mL 10% Ammonium per sulphate (APS); 0.004 mL TEMED; 3.3 mL water), followed by overlaying with butanol-water and allowing to polymerize for 30-45 minutes. The butanol-water was washed off and then the stacking gel (1.7 mL 30% Acrylamide (Acrylamide-Bis-acrylamide solution); 1.25 mL 1.5M Tris (pH6.8); 0.1 mL 10% Ammonium per sulphate (APS); 0.01 mL TEMED; 6.8 mL water), was poured over the polymerized resolving gel, immediately followed by insertion of the comb. This was allowed to polymerize for approx. 15 minutes. The protein sample (culture supernatant) was mixed with loading dye (5× composition (2 mL): 0.62 mL 1M Tris pH6.8; 0.1 mL 1% Bromophenol blue; 1.0 mL Glycerol; 0.28 mL Water) and loaded in to the wells of the native PAGE. The gel was run in SDS-free electrophoresis buffer (3.0 g Tris base; 14.4 g Glycine; water up to 1 L) at constant current of 25 mA.

For assay [2], the target named is T1, Rhizomucor miehei lipase (RmL) mature …. Put plainly: native PAGE of culture supernatant; HMW band, taken by the filing as lipase associated with propeptide. As to the method:
as §1

From US20170137795A1 (NOVOZYMES A S, published 2017) come the findings set out here.

Changes are numbered by the printed parent chain.

B1: propeptide of RmL (wild type) (peptide)
peptide: VPIKRQSNSTVDSLPPLIPSRTSAPSSSPSTTDPEAPAMSRNGPLPSDVETKYGMALNATSYPDSVVQAM
notes: also called RmL WT propeptide
As to B1, the binding result in assay [1] is “binds”.

B2: propeptide of RMLPP0006 (N-63Q N-13Q) (peptide)
peptide: B1 peptide with N8Q, N58Q
As for B2, the binding result in assay [2] was “no binding”.
